Experiment [1] concerns the target T1, His-tagged mouse CD38 (ACRO Biosystems CD8-M5223) (mouse, UniProt P56528 45-304).
T1 construct: bought protein; used for ELISA coating and as SPR analyte; also called Murine; not shown: His tag
T1 sequence (looked up): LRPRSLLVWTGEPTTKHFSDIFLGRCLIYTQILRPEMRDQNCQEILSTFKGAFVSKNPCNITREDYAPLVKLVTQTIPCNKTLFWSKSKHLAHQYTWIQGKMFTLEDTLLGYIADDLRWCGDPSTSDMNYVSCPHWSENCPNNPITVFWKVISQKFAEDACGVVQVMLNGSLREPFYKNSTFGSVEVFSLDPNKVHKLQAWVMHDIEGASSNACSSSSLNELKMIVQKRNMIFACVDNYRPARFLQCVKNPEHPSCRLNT
Kind of experiment: SPR (second run), His-tagged CD38.

Experiment [2] deals with T2, His-tagged cynomolgus monkey CD38 (ACRO Biosystems, CD8-05223 [sic]) (cynomolgus monkey, UniProt Q5VAN0 43-301).
T2 construct: bought protein; used for ELISA coating and as SPR analyte; not shown: His tag
Briefly: SPR (second run), His-tagged CD38.

The target in experiment [3] is T3, His-tagged human CD38 (ACRO Biosystems CD8-H5224) (human, UniProt P28907 43-300).
T3 construct: bought protein; used for ELISA coating and as SPR analyte; not shown: His tag
Kind of experiment: SPR (second run), His-tagged CD38.

Experiment [4] has as its target T2, His-tagged cynomolgus monkey CD38 (ACRO …). Briefly: SPR, IgG.
The target in experiment [5] is T3, His-tagged human CD38 (ACRO Biosystems …). Briefly: SPR, IgG. (In general: Surface plasmon resonance follows binding to a sensor surface in real time, without labels.)

B1: 40617p1.2.B4 (scFv, V domains shown)
VH: EVQLLESGGGFVQPGGSLRLSCAASGFTFTNYVMNWVRQAPGKGLEWVSSISISGGRYTWYADSVKGRFTISRDNSRNTLYLQMNSLRAEDTAIYYCAREMNTYSFPMDVWGQGTTVTVSS
VL: EIVLTQSPGTLSLSPGERATLNCRASQNVRSDLAWYQQKPGQAPRLLIYDASNRATGIPDRFSGSGSGTDFSLTISRLEPEDFAVYYCQQYYDWPPYTFGGGTKVEIK
As to B1, the figures for the Kd in experiment [1], in experiment [2] and in experiment [3] were 0.00333 µM, 0.149 µM and 0.0361 µM, respectively.

B2: 40769p2.2.H4 IgG (antibody, V domains shown)
VH: EVQLLESGGGLVQPGGSLRLSCAASGFDFSSYWMNWVRQAPGKGLEWVSTISSGGSIIYYADSVKGQFTISRDNSKNTLYLQMNSLRAEDTAVYYCAKDNWNDYYGMDVWGQGTTVTVSS
VL: QSVPTQPPSASGTPGQRVTISCSGSSSNIRDNYVYWYQQVPGTAPKLLIYKDDQRPSGVPDRFSGSKSGTSASLAISGLQSEDEADYYCATWDGSLNARVFGGGTKLTVL
notes: IgG
As for B2, the Kd (as a rule, the concentration at which binding is half-saturated) in experiment [4] worked out at 0.167 µM; in experiment [5], 0.057 µM.

B3: 40769p2.1.C1 IgG (antibody, V domains shown)
VH: EVQLLESGGGLVQPGGSLRLSCAASGFSFSDYWMNWVRQAPGKGLEWVSTISSGGNMIYYADSVKGRFTISRDNSKNTLYLRMNSLRAEDTAVYYCAKDNWNDYYGMDVWGQGTTVTVSS
VL: QSVLTQPPSASGTPGQRVTISCSGSSSNIRDNYVYWYQQVPGTAPKLLIYKDDQRPSGVPDRFSGSKSGSSASLAISGLQSEDEADYYCATWDGSLNARVFGGGTKLTVL
notes: IgG
On to B3, for which the Kd in experiment [4] worked out at 0.0293 µM; in experiment [5], 0.0607 µM.

B4: 40596p2.1.B8 IgG (antibody, V domains shown)
VH: EVQLLESGGGLGQPGGSLRLSCAASGFDFSSYAMSWVRQAPGKGLEWVAGGGWSGSFIYYADSVKGRFTISRDNSKNTLYLQMNSLRAEDTAVYYCTRNPGFGEMDVWGQGTTVTVSS
VL: EIVLTQSPGTLSLSPGERATLSCRASQTVGSNLAWYQQKPGQAPRLLIHGANNRATDIPDRFSGSGSGTEFTLTVSSLQSEDFAIYYCQQYNSWPPLTFGGGTKVEIK
notes: IgG
Turning to B4, the Kd was found to be 0.159 µM in experiment [4] and 0.0185 µM in experiment [5].

B5: 40769p2.2.G3 IgG (antibody, V domains shown)
VH: EVQLLESGGGLVQPGGSLRLSCTASGITFSRFNMFWVRQAPGKGLEFVASIRDDGSWTYYADSVKGQFTISRDNSKNTLYLQMNSLRAEDTAVYYCAKDYSSKDFIYHYVMDVWGQGTTVTVSS
VL: QSVLTQPPSASGTPGQRVTISCSGRNSNIGNNVVNWYQQLPGTAPKLLIYRNQERPSGVPDRFSGSKSGTSASLAISGLQSEDEADYYCASWDDSLNAWVFGRGTKLTVL
notes: IgG
Consider B5, for which the values for the Kd in experiment [4] and in experiment [5] were 0.205 µM and 0.0504 µM, respectively.

B6: 40769p2.2.A9 IgG (antibody, V domains shown)
VH: EVQLLESGGGLVQPGGSLRLSCTASGITFSRFNMFWVRQAPGKGLEFVASIRDDGSWTYYADSVKGQFTISRDNSKNTLYLQMNSLRAEDTAVYYCAKDYNSKDFIYHYVMDVWGQGTTVTVSS
VL: QSVLTQPPSASGTPGQRVTISCSGRNSNIGNNVVNWYQQLPGTAPKLLIYRNQERPSGVPDRFSGSKSGTSASLAISGLQSEDEADYYCSTWDDSLNGWVFGGGTKLTVL
notes: IgG
Regarding B6, the Kd is 0.259 µM in experiment [4] and 0.0113 µM in experiment [5].

B7: 40769p2.2.D3 IgG (antibody, V domains shown)
VH: EVQLLESGGGLIQPGGSLRLSCTASGFDFSSYGMHWVRQAPGKGLEWVGIISDSGGTTYYADSVKGRFTISRDNSKNTLYLQMNSLRAEDTALYYCASYIMDVWGQGITVTVSS
VL: QSVLTQPPSASGTPGQRVTISCSGSNSNVGVNSVYWYQQLPGTAPKLLIYGSGRRPSGVPDRFSVSKSGTSASLAISGLQSEDEADYYCAAWDGGLNAWVFGGGTKLTVL
notes: IgG
With B7, the values for the Kd in experiment [4] and in experiment [5] were 0.348 µM and 0.0413 µM, respectively.

B8: 40596p1.F6 (scFv, V domains shown)
VH: EVQLLESGGGLVQPGGSLRLSCAASGFDFSKNAMSWVRQAPGKGLEYVAGSGWSGSFIFYADSVKGRFTVSRDNSENTLYLQMSSLRAEDTAVYYCAKNPGFGEMDVWGQGTTVTVSS
VL: EIVLTQSPGSLFLSPGERATLTCRASQTIGSNLAWYQQKFGQAPRLLIYGASTRAADIPDRFSGSGSGTEFTLTISSLQSEDFAVYYCQQYNSWPPLTFGGGTKVEIK
Turning to B8, the Kd in experiment [1] was 0.0272 µM; in experiment [2], 0.281 µM; in experiment [3], 0.0804 µM.

B9: 40596p1.E4 (scFv, V domains shown)
VH: EVQLLESGGGLVQPGGSLRLSCAASGFDFSGSAMSWVRQAPGKGLEYVAGLGWSGSFIYYADSVKGRSTISRDNSKNTLYLQLNSLRAEDTAVYYCARNPGFGEMDVWGQGTTVTVSS
VL: EIVLTQSPGSLSLSPGERATLSCRASQTVGSNLAWYQQKPGQAPRLLIYGASTRATDIPDRFSGSGSGTEFTLTISSLQSEDFAVYYCQQYNSWPPLTFGGGTKVEIK
Turning to B9, the Kd in experiment [1] worked out at 0.93 µM; in experiment [2] it was 0.147 µM; in experiment [3], 0.0264 µM.

B10: 40596p1.A5 (scFv, V domains shown)
VH: EVQLLESGGGLVQPGGSLRLSCAASGFDFSNNAMSWVRQAPGKGLEYVAGSGWSGSFIFYADSVKGRFTVSRDNSENTLYLQMNSLRAEDTAVYYCAKNPGFGEMDVWGQGTTVTVSS
VL: EIVLTQSPGSLSLSPGERATLRCRASQSIGSNLAWYQQKPGQAPSLLIYGASTRAADIPDRFSGSGSGTEFTLTITSLQSEDFAVYYCQQYNSWPPLTFGGGTKVEIK
Regarding B10, the Kd in experiment [1] was 0.0237 µM; in experiment [2], 0.203 µM; in experiment [3], 0.0569 µM.

B11: 40596p1.D2 (scFv, V domains shown)
VH: EVQLLESGGGLVQPGGSLRLSCAASGFDFSKNAMSWVRQAPGKGLEYVAGSGWSGSFIFYADSVKGRSTVSRDNSENTLYLQMSSLRAEDTAVYYCAKNPGFGEMDVWGQGTTVTVSS
VL: ELVLTQSPGSLFLSPGERATLTCRASQTIGSNLAWYQQKFGQAPRLLIYGASTRAADIPDRFSGSGSGTEFTLTISSLQSEDFAVYYCQQYNSWPPLTFGGGTKVEIK
As for B11, the Kd stood at 0.0452 µM in experiment [1], 0.172 µM in experiment [2] and 0.0547 µM in experiment [3].

B12: 40769p2.2.C11 IgG (antibody, V domains shown)
VH: EVQLLESGGGLVQPGGSLRLSCAASGFTFSDYEMNWVRQAPGKGLEWVSSISITGSWTYYADSVKGRFTISRDNSKNTLYLQMNNLRAEDTAVYYCANYKSYYGMDVWGHGTTVTVSS
VL: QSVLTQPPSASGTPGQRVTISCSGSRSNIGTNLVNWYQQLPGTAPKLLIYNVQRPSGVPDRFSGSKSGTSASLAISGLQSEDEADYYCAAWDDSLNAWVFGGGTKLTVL
notes: IgG
Consider B12, for which the Kd in experiment [4] worked out at 0.00218 µM; in experiment [5] it was 0.00067 µM.

B13: 40769p2.2.A6 IgG (antibody, V domains shown)
VH: EVQLLESGGGLVQPGGSLRLSCAASGFTFSDYEMNWVRQAPGKGLEWVSAISITGSWTYYADSVKGRFTISRDNSENTLYLQMNNLRAEDTAVYYCANYKSYYGMDVWGRGTTVTVSS
VL: QSVLTQPPSASGTPGQRVTISCSGSRSNIRNNLVNWYQQLPGTAPKLLIYNTQRPSGVPDRFSGSKSGTSASLAISGLQSEDEADYYCASWDASLNAWVFGGGTKLTVL
notes: IgG
Regarding B13, the figures for the Kd in experiment [4] and in experiment [5] were 0.0229 µM and 0.0219 µM, respectively.

B14: 40769p2.2.H8 IgG (antibody, V domains shown)
VH: EVQLLESGGGLVQSGGSLRLSCAASGFNFNSHDMNWVRQAPGKGLEWVSSISADRGRTYYADSVKGRFTIFRDDSKKILYLQMNSLRAEDTAVYYCTKYYNMDVWGQGTTVTVSS
VL: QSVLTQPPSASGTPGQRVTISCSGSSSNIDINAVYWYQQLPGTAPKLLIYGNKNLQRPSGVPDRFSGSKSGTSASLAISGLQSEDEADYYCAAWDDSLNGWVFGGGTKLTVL
notes: IgG
For B14, the results for the Kd in experiment [4] and in experiment [5] were 0.148 µM and 0.0657 µM, respectively.

B15: 40769p2.1.E8 IgG (antibody, V domains shown)
VH: EVQLLESGGGLVQPGGSLRLSCTGFGFTFTDARMSWVRQAPGKGLEWVADISSYGDNTYYADSVKGRFTISRDNSANTLYVQMNSLRAEDTAVYYCAKRMEREVMTIKLDYHAMDVWGQGTTVTVSS
VL: QSVLTQTPSVSGTPGQRVTISCSGVFNIRNYVSWYQQLPGTAPKLLIFKDDQRPSGVPDRFSGSRSGTSASLAISGLQSEDEADYYCAAWDIFLNVWVFGGGTKLTVL
notes: IgG
For B15, the results for the Kd in experiment [4] and in experiment [5] were 0.00035 µM and 0.00014 µM, respectively.

B16: 40617p1.2.A1 (scFv, V domains shown)
VH: EVQLLESGGGLVQPGGSLRLSCAASGFTFSSYWMTWVRQAPGKGLEWVSAISSYGGQYTYYADSVKGRFTISRDNSKDTLYLHMDSLRAEDTAVYYCAKDWDDGMDVWGQGTTVTVSS
VL: EIVMTQSPAVLSVSPGERATLSCRASQSVNIKLAWYQQKPGQAPRLLIYGASTRAAGIPDRFSGSGSGTDFTLTISSLQSDDFAVYYCQQYYDLPPYSFGGGTKVEIK
For the molecule B16, the Kd in experiment [1] came out at 0.141 µM; in experiment [2] it was 0.102 µM; in experiment [3], 0.0754 µM.

B17: 40617p1.2.H1 (scFv, V domains shown)
VH: EVQLLESGGGLVQPGGSLRLSCAASGFTFTNYWMTWVRQAPGKGLEWVSAISSYGGNYMYYADSVKGRFTISRDNSENTLYLQMNSLRAEDTAVYYCAKDWDDGMDVWGQGTTVTVSS
VL: EIVMTQSPAVLSVSPGERATLSCRASQTVGSKLAWYQQKPGQAPRLLIYGVSTRAAGIPDRFSGSGSGTDFTLTISSLQSEDFAVYYCQQYYDLPPYSFGGGTKVEIK
In the case of B17, the results for the Kd in experiment [1], in experiment [2] and in experiment [3] were 0.073 µM, 0.0338 µM and 0.00971 µM, respectively.

B18: 40769p2.1.E5 IgG (antibody, V domains shown)
VH: EVQLLESGGGLVQPGGSLRLSCTASAHIFKYNWMSWVRQAPGKGLEWVSSINSDGTITYYTDSVKGRFTISRDNSKNTLYLQMNSLRAEDTAVYYCAKDNWNDYAIDVWGQGTTVTVSS
VL: QSVLTQPPSASGTPGQRVTISCSGSRSDIRNNYVSWYQQLPGTAPKLLIYSNGQRPSGVPDRFSGSKSGTSASLAISGLQSEDEADYYCAIWDDSLNAWVFGGGTKLTVL
notes: IgG
For the molecule B18, the Kd in experiment [4] was 0.467 µM; in experiment [5], 0.00118 µM.

Source of the values: patent publication US20220306762A1 (CRYSTAL BIOSCIENCE, published 2022).
